Experimental data from publication PMC5897352, “Isolation and characterization of a multifunctional flavonoid glycosyltransferase from Ornithogalum caudatum with glycosidase activity” (Scientific Reports, 2018).

Experiments:
[1] = substrate: O=c1cc(-c2ccccc2)oc2cc(O)cc(O)c12; test: HPLC glucosylation assay, Lineweaver-Burk; type: biochemical, Albuca bracteata; conditions: 1 mM UDP-Glc fixed, phosphate buffer pH 8.0, 50 °C, apparent Km
[2] = substrate: O=[N+]([O-])c1ccccc1O[C@@H]1O[C@H](CO)[C@H](O)[C@H](O)[C@H]1O; test: HPLC hydrolysis assay (o-nitrophenol release), Lineweaver-Burk; type: biochemical, Albuca bracteata; conditions: no UDP or UDP-sugar, phosphate buffer (pH 6.0 in methods, optimum pH 7), 37 °C

B1: OcUGT1 (Albuca bracteata) (protein)
chain: MGSEAHGALHILFFPLMAPGHMLPMVDMAKLFAARGLKPTIFTTPGNVRLIQPSIDNANGSGHQNPIQLFTVPFPSIDGIPDGCENLSSVTQELHVKFFVGLGNLREPFKDSLARLRPDCIVSDMFLPWTADEAAERGMPRLVFHGSNFFTQCAYRSIEHHKVLESLAPGEDTFVIPGLPHRVELRRSTMPDIQTFAPELMDIILQTREAELKSLGTVMNTFYELEPDYADHFCNVMGRRAWNIGPLSLCNKDVADKWRRGNEASITSEFCLNWLDSQEPSSVVYVCFGSLSDFTTAQLREIAAGLEASGRPFVWVVRNHSEEWIPEGLEERVGGKGLIIRGWAPQILILSHVAVGGFLTHCGWNSILEGVSAGLPFVTWPLFADQFYNERLIVDVLKIGVAVGSNEYANKPEERKIIEAAKIEATINELMGDGKDADERREKARALGELAQRAVEKGGSSYRDLDNLISELVEKRSAV
notes: full-length ORF of 1440 bp (479 residues by ORF length)
[1]
  Km: 0.1506 ± 0.0139 mM
[2]
  Km: 6.897 ± 1.995 mM
